In experiment [1] the target is viral CC chemokine inhibitor (vCCI), rabbitpox virus (rabbitpox virus). As to the kind of experiment: ITC. Background: In ITC the heat of successive injections is recorded.
Experiment [2] addresses viral CC chemokine inhibitor (vCCI), rabbitpox, produced and refolded from E. coli (rabbitpox virus). The experiment can be described thus: ITC.

In general, stoichiometry N refers to the number of molecules, sites or subunits per partner or assembly. The term Kd denotes the constant that tells how readily two partners part at equilibrium.

B1: viral Macrophage Inflammatory Protein-II (vMIP-II), human herpesvirus 8 (natural protein)
chain: GDTLGASWHRPDKCCLGYQKRPLPQVLLSSWYPTSQLCSKPGVIFLTKRGRQVCADKSKDWVKKLMQQLPVTAR
B1 gave a stoichiometry N in experiment [1] of 0.759.

B2: viral Macrophage Inflammatory Protein-II (vMIP-II) (natural protein)
chain: GDTLGASWHRPDKCCLGYQKRPLPQVLLSSWYPTSQLCSKPGVIFLTKRGRQVCADKSKDWVKKLMQQLPVTAR
In experiment [2], B2 returned a Kd of under 0.1 nM.

The record behind these values is article PMC5578167.
